Results taken from publication PMC2654124 (The Journal of Cell Biology, 2009).

Target: the molecule itself
Assay: native gel or EMSA

B1: Ugo1 (natural protein)
chain: MNNNNVTEATSRAQIRPYYDPDSFNAGYSAVFKPDEGVVDPHGYTIASKLNVINSSPTTKRMANALFKSSPMKKLSNSVNDGLSLEGSNGEITGLNNFEWAELVNIQKWRKIFEQLLDMFFRKYFQLLIQQPFDVARLLIQVGEFKIFKTTVDTNKPQAPIILRDEEGDGAAREGEEDAYDEEEIDFFPIERKIAEANSTAPIMAEETDHSHHEPTDISLTIAPQSLHTIDVINALFDQEGIRGLWKANNTTFIYNFLSLSIDTWFTGLLSSFLGVPDPYFMEVINSPDISKSFILALGAGVFTSIILLPVDLIRTRLIVTSFKKKKNVKTDGKNMVTNTRSLRQLIRCWSWRKNGVSIPLDMWSLTILQSINNSFFNKLFDLVIYNQFHIEKYSQTVMYNTMKFFSKSLELFIKLPLENLLRRCQLNYLLNDQRLSFKVDSTELIVKPKKYNGIWDVIRNNSNTNRGQLWNGWKVGVISLICGYGLQMMNKVDINMEQEKF
stoichiometry N: 2
